± gives the standard error. Fewer inactive variants are shown than the library holds.
B1: glmS ribozyme (parent)
chain: AUAAAAGCGCCAGAACUACAGAAAUGUAGUUGACGAGGAGGAGGUUUAUCGAAUUUUCGGCGGAUGCCUCCAAA

Variants of: B1
Assay: self-cleavage kobs at 10000 uM GlcN6P; higher = faster cleavage; RNA array
Conditions: with glucosamine-6-phosphate
How it was run: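 The measurements used barcoded ribozyme variants on sequenced MiSeq chips, transcribed in situ by E. coli RNA polymerase and tracked at 37 °C with a hybridised Cy3 probe. Glucosamine-6-phosphate, 40 μM to 10 mM in HEPES/KCl/Mg(OAc)2 buffer, was flowed in while tiles were imaged over ~14 h. Baseline-normalised signals, also normalised to non-cleaving reference variants, gave per-tile medians that were fit to one- or two-exponential decays for kobs. kcat and KM resulted from weighted Michaelis–Menten fits across concentrations.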
With G38U A39G A42C A48U the “self-cleavage kobs at 10000 uM GlcN6P” value was under 1e-05 s⁻¹.
With G41U A53G C71A the “self-cleavage kobs at 10000 uM GlcN6P” value was 0.000206 ± 4.7e-05 s⁻¹.
For C50U A53U G62A, the “self-cleavage kobs at 10000 uM GlcN6P” value was under 1e-05 s⁻¹.
For C34A A36C G60A, the “self-cleavage kobs at 10000 uM GlcN6P” value was under 1e-05 s⁻¹.
For U54A G60U A64U, the “self-cleavage kobs at 10000 uM GlcN6P” value was under 1e-05 s⁻¹.
C50U G51U C70U was tested, and the “self-cleavage kobs at 10000 uM GlcN6P” value was under 1e-05 s⁻¹.
In the case of U31A C61G C71U, the “self-cleavage kobs at 10000 uM GlcN6P” value is reported as under 1e-05 s⁻¹.
In the case of G43C G51U G62U, the “self-cleavage kobs at 10000 uM GlcN6P” value is reported as under 1e-05 s⁻¹.
A48G G66A was tested, and the “self-cleavage kobs at 10000 uM GlcN6P” value was 2.4e-05 ± 1.2e-05 s⁻¹.
In the case of A36U U49G G63C, the “self-cleavage kobs at 10000 uM GlcN6P” value is reported as under 1e-05 s⁻¹.
G41C G59U G60C was tested, and the “self-cleavage kobs at 10000 uM GlcN6P” value was under 1e-05 s⁻¹.
G37U G43U G59A was tested, and the “self-cleavage kobs at 10000 uM GlcN6P” value was under 1e-05 s⁻¹.
U30G A42G G62U was tested, and the “self-cleavage kobs at 10000 uM GlcN6P” value was under 1e-05 s⁻¹.
With G37C A53G U55G the “self-cleavage kobs at 10000 uM GlcN6P” value was 3.2e-05 ± 1.4e-05 s⁻¹.
With U31C A42C A64G the “self-cleavage kobs at 10000 uM GlcN6P” value was under 1e-05 s⁻¹.
For A53G U56G C71G, the “self-cleavage kobs at 10000 uM GlcN6P” value was 0.00022 ± 5.2e-05 s⁻¹.
U31A G41U A42U G62A was tested, and the “self-cleavage kobs at 10000 uM GlcN6P” value was under 1e-05 s⁻¹.
In the case of A52C U54G C71G, the “self-cleavage kobs at 10000 uM GlcN6P” value is reported as under 1e-05 s⁻¹.
For G43C U55A G60U, the “self-cleavage kobs at 10000 uM GlcN6P” value was under 1e-05 s⁻¹.
In the case of G44C U55C U57C G59U, the “self-cleavage kobs at 10000 uM GlcN6P” value is reported as under 1e-05 s⁻¹.
With G32C G37U G44C A52C the “self-cleavage kobs at 10000 uM GlcN6P” value was under 1e-05 s⁻¹.
In the case of G44A A64G, the “self-cleavage kobs at 10000 uM GlcN6P” value is reported as 3.74e-05 ± 1.4e-05 s⁻¹.
In the case of A42C U45C C50U, the “self-cleavage kobs at 10000 uM GlcN6P” value is reported as under 1e-05 s⁻¹.
In the case of U54A A64C, the “self-cleavage kobs at 10000 uM GlcN6P” value is reported as 0.000157 ± 2.8e-05 s⁻¹.
In the case of G32A U54C U56C C58A, the “self-cleavage kobs at 10000 uM GlcN6P” value is reported as 9.78e-05 ± 2.1e-05 s⁻¹.
With G40U U45A C70G the “self-cleavage kobs at 10000 uM GlcN6P” value was 0.000163 ± 3.4e-05 s⁻¹.
A36C U47G U65G was tested, and the “self-cleavage kobs at 10000 uM GlcN6P” value was under 1e-05 s⁻¹.
In the case of G32A U45G U49G C71G, the “self-cleavage kobs at 10000 uM GlcN6P” value is reported as under 1e-05 s⁻¹.
G37A A52G C67U was tested, and the “self-cleavage kobs at 10000 uM GlcN6P” value was 5.39e-05 ± 2.2e-05 s⁻¹.
With G43A U46A G59C the “self-cleavage kobs at 10000 uM GlcN6P” value was under 1e-05 s⁻¹.
With G32U U46A U56G the “self-cleavage kobs at 10000 uM GlcN6P” value was 3.85e-05 ± 1.2e-05 s⁻¹.
In the case of G37U G60U U69C, the “self-cleavage kobs at 10000 uM GlcN6P” value is reported as under 1e-05 s⁻¹.
With C34G G59C C61A A64G the “self-cleavage kobs at 10000 uM GlcN6P” value was under 1e-05 s⁻¹.
For A39G G44A U57A C61U C70U, the “self-cleavage kobs at 10000 uM GlcN6P” value was under 1e-05 s⁻¹.
For G35C G51C C58A, the “self-cleavage kobs at 10000 uM GlcN6P” value was under 1e-05 s⁻¹.
In the case of G44C U56G, the “self-cleavage kobs at 10000 uM GlcN6P” value is reported as 5.6e-05 ± 1.2e-05 s⁻¹.
With C34U G38A C70G the “self-cleavage kobs at 10000 uM GlcN6P” value was 3.44e-05 ± 1.7e-05 s⁻¹.
G32A U55A C67G was tested, and the “self-cleavage kobs at 10000 uM GlcN6P” value was 8.33e-05 ± 2.7e-05 s⁻¹.
In the case of A42C G51A G63U, the “self-cleavage kobs at 10000 uM GlcN6P” value is reported as under 1e-05 s⁻¹.
With C50G A53G C68G C70A the “self-cleavage kobs at 10000 uM GlcN6P” value was 7.46e-05 ± 1.9e-05 s⁻¹.
In the case of C50U G60U C70A, the “self-cleavage kobs at 10000 uM GlcN6P” value is reported as under 1e-05 s⁻¹.
U47G U55C C67A was tested, and the “self-cleavage kobs at 10000 uM GlcN6P” value was 0.000309 ± 4.9e-05 s⁻¹.
For G38C A53C C67U, the “self-cleavage kobs at 10000 uM GlcN6P” value was under 1e-05 s⁻¹.
In the case of U30G A39U C70A, the “self-cleavage kobs at 10000 uM GlcN6P” value is reported as 7.17e-05 ± 1.8e-05 s⁻¹.
A42U U46C C50A A53U was tested, and the “self-cleavage kobs at 10000 uM GlcN6P” value was under 1e-05 s⁻¹.
G32A G40U C67U was tested, and the “self-cleavage kobs at 10000 uM GlcN6P” value was under 1e-05 s⁻¹.
In the case of U46A C68A C71A, the “self-cleavage kobs at 10000 uM GlcN6P” value is reported as under 1e-05 s⁻¹.
G35A A36U G43U was tested, and the “self-cleavage kobs at 10000 uM GlcN6P” value was under 1e-05 s⁻¹.
For G44U U54C, the “self-cleavage kobs at 10000 uM GlcN6P” value was 0.000226 ± 5e-05 s⁻¹.
U30G U49G G63C was tested, and the “self-cleavage kobs at 10000 uM GlcN6P” value was under 1e-05 s⁻¹.
With U31G G38A A53C U65C the “self-cleavage kobs at 10000 uM GlcN6P” value was under 1e-05 s⁻¹.
C34U U45A C50A was tested, and the “self-cleavage kobs at 10000 uM GlcN6P” value was under 1e-05 s⁻¹.
For G51C A52U U57C G59U, the “self-cleavage kobs at 10000 uM GlcN6P” value was under 1e-05 s⁻¹.
With G38A A42U C50G C67G the “self-cleavage kobs at 10000 uM GlcN6P” value was 0.000231 ± 6.8e-05 s⁻¹.
For A39C C50A A53C G66U, the “self-cleavage kobs at 10000 uM GlcN6P” value was under 1e-05 s⁻¹.
A36U C68G C71U was tested, and the “self-cleavage kobs at 10000 uM GlcN6P” value was 5.72e-05 ± 2.3e-05 s⁻¹.
For G32A U56A C67G, the “self-cleavage kobs at 10000 uM GlcN6P” value was 0.000139 ± 2e-05 s⁻¹.
In the case of U31A U49A U65C C67G, the “self-cleavage kobs at 10000 uM GlcN6P” value is reported as under 1e-05 s⁻¹.
For A33U C58G C67U C68A, the “self-cleavage kobs at 10000 uM GlcN6P” value was 5.11e-05 ± 1.6e-05 s⁻¹.
For G38C A39U U46C, the “self-cleavage kobs at 10000 uM GlcN6P” value was under 1e-05 s⁻¹.
G37U A52G A64C C70A was tested, and the “self-cleavage kobs at 10000 uM GlcN6P” value was under 1e-05 s⁻¹.
With G32C U54A C68G the “self-cleavage kobs at 10000 uM GlcN6P” value was 6.46e-05 ± 2e-05 s⁻¹.
A33G A48C C50U C70G was tested, and the “self-cleavage kobs at 10000 uM GlcN6P” value was under 1e-05 s⁻¹.
For U49A C50A, the “self-cleavage kobs at 10000 uM GlcN6P” value was under 1e-05 s⁻¹.
With G32U U56A C58A C68A the “self-cleavage kobs at 10000 uM GlcN6P” value was 0.000114 ± 2.2e-05 s⁻¹.
With G37U G38A G51U the “self-cleavage kobs at 10000 uM GlcN6P” value was under 1e-05 s⁻¹.
For G41A C61G A64U, the “self-cleavage kobs at 10000 uM GlcN6P” value was under 1e-05 s⁻¹.
With G32C A36C C67U the “self-cleavage kobs at 10000 uM GlcN6P” value was under 1e-05 s⁻¹.
For U47A C50G G63U U69G, the “self-cleavage kobs at 10000 uM GlcN6P” value was 5.11e-05 ± 1.5e-05 s⁻¹.
For U65C U69C, the “self-cleavage kobs at 10000 uM GlcN6P” value was 0.000106 ± 2.2e-05 s⁻¹.
With U31G U55G C58U the “self-cleavage kobs at 10000 uM GlcN6P” value was 7.92e-05 ± 1.7e-05 s⁻¹.
G40C A52C was tested, and the “self-cleavage kobs at 10000 uM GlcN6P” value was under 1e-05 s⁻¹.
For A36G A42C G59U, the “self-cleavage kobs at 10000 uM GlcN6P” value was under 1e-05 s⁻¹.
For U49A A53C G63U C71G, the “self-cleavage kobs at 10000 uM GlcN6P” value was under 1e-05 s⁻¹.
A36G A48C C68A was tested, and the “self-cleavage kobs at 10000 uM GlcN6P” value was under 1e-05 s⁻¹.
For A33U U57C C67G U69A, the “self-cleavage kobs at 10000 uM GlcN6P” value was under 1e-05 s⁻¹.
A39C G43C C50A was tested, and the “self-cleavage kobs at 10000 uM GlcN6P” value was under 1e-05 s⁻¹.
For G35U G41U A42C G62C C70A, the “self-cleavage kobs at 10000 uM GlcN6P” value was under 1e-05 s⁻¹.
For U31C A48C, the “self-cleavage kobs at 10000 uM GlcN6P” value was 3.72e-05 ± 7.7e-06 s⁻¹.
For G40C G41U G62A, the “self-cleavage kobs at 10000 uM GlcN6P” value was under 1e-05 s⁻¹.
For U57G A64G, the “self-cleavage kobs at 10000 uM GlcN6P” value was 9.48e-05 ± 1.8e-05 s⁻¹.
For U56C U57A, the “self-cleavage kobs at 10000 uM GlcN6P” value was 8.46e-05 ± 1.3e-05 s⁻¹.
With G44U A48G C50U C71U the “self-cleavage kobs at 10000 uM GlcN6P” value was under 1e-05 s⁻¹.
For U45A U46C C67G, the “self-cleavage kobs at 10000 uM GlcN6P” value was 0.000673 ± 0.00013 s⁻¹.
For G41C C50A G62U, the “self-cleavage kobs at 10000 uM GlcN6P” value was under 1e-05 s⁻¹.
In the case of U47A A53U C68G, the “self-cleavage kobs at 10000 uM GlcN6P” value is reported as 4.16e-05 ± 1.7e-05 s⁻¹.
For A48G A52G C71G, the “self-cleavage kobs at 10000 uM GlcN6P” value was under 1e-05 s⁻¹.
For G35U U45G C67G, the “self-cleavage kobs at 10000 uM GlcN6P” value was under 1e-05 s⁻¹.
U30G G41U G43A A48C C71U was tested, and the “self-cleavage kobs at 10000 uM GlcN6P” value was under 1e-05 s⁻¹.
U31G U47C C61U C71U was tested, and the “self-cleavage kobs at 10000 uM GlcN6P” value was under 1e-05 s⁻¹.
With G32U U54C C70A the “self-cleavage kobs at 10000 uM GlcN6P” value was 4.27e-05 ± 1.5e-05 s⁻¹.
A36C U46G U49G was tested, and the “self-cleavage kobs at 10000 uM GlcN6P” value was 0.000106 ± 2.7e-05 s⁻¹.
In the case of G41C U56G G62U, the “self-cleavage kobs at 10000 uM GlcN6P” value is reported as under 1e-05 s⁻¹.
In the case of U46C G62A G66A C71A, the “self-cleavage kobs at 10000 uM GlcN6P” value is reported as under 1e-05 s⁻¹.
With A39U U47A C67U the “self-cleavage kobs at 10000 uM GlcN6P” value was 0.00456 ± 0.0007 s⁻¹.
U31G A33U A53G was tested, and the “self-cleavage kobs at 10000 uM GlcN6P” value was 2.81e-05 ± 1.3e-05 s⁻¹.
In the case of G44A U65G C67U, the “self-cleavage kobs at 10000 uM GlcN6P” value is reported as 0.00292 ± 0.00045 s⁻¹.
For A36G G44U A53C, the “self-cleavage kobs at 10000 uM GlcN6P” value was under 1e-05 s⁻¹.
For U49A U56A A64C, the “self-cleavage kobs at 10000 uM GlcN6P” value was under 1e-05 s⁻¹.
With G35C U45G U47A U65C the “self-cleavage kobs at 10000 uM GlcN6P” value was under 1e-05 s⁻¹.
With C34A C67G C70A the “self-cleavage kobs at 10000 uM GlcN6P” value was under 1e-05 s⁻¹.
With G32U U49G A64G the “self-cleavage kobs at 10000 uM GlcN6P” value was 0.000122 ± 2.8e-05 s⁻¹.

Reference: the supplement of paper PMC7125110
